{
  "source": "patent US20120020912A1",
  "about": "(WISCONSIN ALUMNI RESEARCH FOUNDATION, published 2012)",
  "data": [
    {"biological_target": "T1, HLA-A2 on T2 cells (human)", "T1 construct": "whole, on cells; MHC class I molecule on T2 cells", "test": "T2 binding assay: T2 cells pulsed with 50 ug/mL peptide overnight, surface HLA-A2 by flow cytometry (BB7.2)", "description": "T2 Binding Assay: After passing T2 cells into fresh media the day before the assay, these cells were pulsed with 50 μg/mL peptide overnight at 37° C./5% CO₂.", "values": [
      {"binder": "WMGLMVFAM (Synthetic 9-mer derived from the AR LBD)", "note": "[AR742 peptide]", "In Vitro HLA-A2 Expression (Relative Mean Flourescent Intensity)": "1.32 ratio to unloaded T2 cells"},
      {"binder": "ALLSSLNEL (Synthetic 9-mer derived from the AR LBD)", "note": "[AR700 peptide]", "In Vitro HLA-A2 Expression (Relative Mean Flourescent Intensity)": "2.66 ratio to unloaded T2 cells"},
      {"binder": "FSIIPVDGL (Synthetic 9-mer derived from the AR LBD)", "note": "[AR814 peptide]", "In Vitro HLA-A2 Expression (Relative Mean Flourescent Intensity)": "1.01 ratio to unloaded T2 cells"},
      {"binder": "VLEAIEPGV (Synthetic 9-mer derived from the AR LBD)", "note": "[AR677 peptide]", "In Vitro HLA-A2 Expression (Relative Mean Flourescent Intensity)": "1.37 ratio to unloaded T2 cells"},
      {"binder": "LGERQLVHVV (Synthetic 10-mer derived from the AR LBD)", "note": "[AR708 peptide]", "In Vitro HLA-A2 Expression (Relative Mean Flourescent Intensity)": "1.16 ratio to unloaded T2 cells"},
      {"binder": "RMLYFAPDLV (Synthetic 10-mer)", "note": "[AR761 peptide]", "In Vitro HLA-A2 Expression (Relative Mean Flourescent Intensity)": "2.15 ratio to unloaded T2 cells"},
      {"binder": "QLTKLLDSV (Synthetic 9-mer)", "note": "[AR859 peptide]", "In Vitro HLA-A2 Expression (Relative Mean Flourescent Intensity)": "1.33 ratio to unloaded T2 cells"},
      {"binder": "LLLFSIIPV (Synthetic 9-mer)", "note": "[AR811 peptide]", "In Vitro HLA-A2 Expression (Relative Mean Flourescent Intensity)": "2.54 ratio to unloaded T2 cells"},
      {"binder": "FLCMKALLL (Synthetic 9-mer)", "note": "[AR805 peptide]", "In Vitro HLA-A2 Expression (Relative Mean Flourescent Intensity)": "2.19 ratio to unloaded T2 cells"},
      {"binder": "KLLDSVQPI (Synthetic 9-mer derived from the AR LBD)", "note": "[AR862 peptide]", "In Vitro HLA-A2 Expression (Relative Mean Flourescent Intensity)": "1.65 ratio to unloaded T2 cells"}
    ]}
  ]
}
